Results reported in the supplement of paper PMC9170038.

Test system: MS2 coat protein
Assay: apparent KD of MS2 coat protein; designed switch direction (-1 OFF switch, 1 ON switch): -1; higher = weaker reporter binding
Procedure, shortened: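 Designed RNA switches with common flanks were made on Illumina chips by stalled E. coli RNA polymerase. Titration with SNAP-549-labelled MS2 coat protein doubled from 0.7 or 1.5 nM up to 3 µM. Apparent KD is each design's median over clusters after curve-fitting normalised fluorescence.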

[1] = Eterna round: R95, input ligand: microRNA oligo, concentration not stated
[2] = input ligand: microRNA oligo, concentration not stated
[3] = Eterna round: R95, input ligand: FMN 200 uM
[4] = Eterna round: R95, input ligand: none

Row | Sequence | apparent KD of MS2 coat protein [1] | apparent KD of MS2 coat protein [2] | apparent KD of MS2 coat protein (input ligand: FMN 200 uM) | apparent KD of MS2 coat protein (input ligand: none) | apparent KD of MS2 coat protein [3] | apparent KD of MS2 coat protein [4]
1 | UUCAGACAUGAGGAUCACCCAUGUGAGGAUAUGAUGCGAUCGUCGAAAGACGAUAGCAUCAGAAGGCACAUAUG [Fiskers Ex 1 - 17] (puzzle: Exclusion 1) | 153 nM |  |  |  |  | 
2 | AAAAGAAUAAAAGGAUAUAGGAAAGGAAGUGUACUAGAAGGUUUGUUAACAUGAGGAUCACCCAUGUGCUCAGACACAGGGUGC [PowerStrip EXNG 1.3] (Eterna round: R96, puzzle: Exclusion NG 1) |  | 91.5 nM |  |  |  | 
3 | ACGAUGACCGAAAAGUGUUAACUGACAUGAGGAUCACCCAUGUAGGAUAUGGCUACGAAAAGUAGUCAGAAGGACAUGUCAUCA [Omei Exc(NG) 3 Av7] (Eterna round: R96, puzzle: Exclusion NG 3) |  | 13.1 nM | 17.8 nM | 17.5 nM |  | 
4 | ACUGGUCAUGAGGAUAUGCGCCAGAACGCCGGCGUAGAAGGCGUGACAUGAGGAUCACCCAUGUCAGUUCGCGA [eternacac ex6r4 sub30] (Eterna round: R97, puzzle: Exclusion 6) |  |  | 39.1 nM | 39.6 nM |  | 
5 | UACCCUAAGGUGAGGAUAUCUAGGCCUAGAGGUCAAGAGAAGGCACAUGAGGAUCACCCAUGUAGUUGAUACGA [BmEX4 B.25] (Eterna round: R97, puzzle: Brourd's mod of Exclusion 4) |  |  | 77.4 nM | 21.9 nM |  | 
6 | UAUGUCGACAAGGAUAUUUGCGCAAACGACCACAAAGAAGGUGUCACAUGAGGAUCACCCAUGUGGUGUGGGCC [Eternabot (L1) Solution 83] (Eterna round: R97, puzzle: Exclusion 6) |  |  | 202 nM | 209 nM |  | 
7 | GUGGGUUACAUGAGGAUCACCCAUGUAUAGUGGGAAAAGAUAUAGGAUAUAAUAUAAAAAUUAUAUUAGAAGGAUAGAGACUAG [AK ExNG3-1.1] (Eterna round: R96, puzzle: Exclusion NG 3) |  | 260 nM | 727 nM | 896 nM |  | 
8 | UCGUGAUUAGAGGAUAUAUUAAGGGUCAGAACAAUAGAAGGCUAAACAUGAGGAUCACCCAUGUAAAUGGUUUU [JR_Ex6_Sub058] (Eterna round: R97, puzzle: Exclusion 6) |  |  | 183 nM | 70.7 nM |  | 
9 | CUGAGGUAGCGGUCCUAUGACAUGAGGAUCACCCAUGUGCCUCGCUACAAGCUUUUUGCUCGUUUUAUGAUUCUCGG [JL Atriat mod 11] (puzzle: Sensor v3, turn-off variant 1) | 90.1 nM |  |  |  | 71.2 nM | 95.3 nM
10 | CAGAAGCAAGGAUAUACAACGGGCCACAGAGCGAGAGGGCAACAUGAGGAUCACCCAUGUAGAAGGUGCGUAAC [Timaina] (puzzle: Exclusion 2) | 97.4 nM |  |  |  | 47.5 nM | 74.4 nM
11 | AGAUGCUCAAGUCGACAUGAGGAUCACCCAUGUACAGUUAAUGAGGAUAUCCGAGAUAAAUAAUAGGAGAAGGCGUGAACAUGA [Ex NG3 #8] (Eterna round: R96, puzzle: Exclusion NG 3) |  | 50.6 nM | 72.4 nM | 94.1 nM |  | 
12 | AGCUGUGGCCGAGGAUAUCUGACUUCAAUAACCGAAAUAUAAUCGGACAUGAGGAUCACCCAUGUAGAGAAGGCGGUCUCAGCA [Eli eng2 - 083] (Eterna round: R96, puzzle: Exclusion NG 2) |  | 12.5 nM |  |  |  | 
13 | GGUACUAACACGAAAGUGUUAGUACUAUAAGCUUGUGUUACAUGAGGAUCACCCAUGUCCUCAUAGGCUCGUCUUAU [JL-sv3-2.18 mat747 mod] (puzzle: Sensor v3, turn-off variant 2) | 29.9 nM |  |  |  | 292 nM | 252 nM
14 | GUGUAGACAGGAUAUGCUUUGAGCAUAUGAGAGUAUGCUCGACAUGAGGAUCACCCAUGUAGAAGGGUCUACAC [LRO-Excl2-02] (puzzle: Exclusion 2) | 12.9 nM |  |  |  |  | 
15 | UCCUCACAUGAGGAUCACCCAUGUCAGGAUAUACGAACGGUAAGUGACAAUCGAUUACGUAGAAGGGACUGCGG [Eternabot (L1) Solution 78] (Eterna round: R97, puzzle: Exclusion 1) |  |  | 110 nM | 121 nM |  | 
16 | ACACAGCGAGGAUAUACAUGAGGAUCACCCAUGUGGUGGCAGUUACGGUAGGACUAGUGUAGAAGGUGCAGUGG [EX3 #29] (Eterna round: R97, puzzle: Exclusion 3) |  |  | 485 nM | 800 nM |  | 
17 | GGGUGCAGGCUGAGGUCCUACAUGAGGAUCACCCAUGUGGUCCGGUGACGUGAGUCGCCGGACUUGGCUCGUCUUGU [salish99_S_TOV1_R5_011] (Eterna round: R97, puzzle: Sensor, turn-off variant 1) |  |  | 42.2 nM | 52.1 nM |  | 

Row | Sequence | apparent KD of MS2 coat protein [1] | apparent KD of MS2 coat protein [2] | apparent KD of MS2 coat protein (input ligand: FMN 200 uM) | apparent KD of MS2 coat protein (input ligand: none) | apparent KD of MS2 coat protein [3] | apparent KD of MS2 coat protein [4]
18 | GCCGAAAGUGUGAGGAUAUACCUAUGGAAACAUAGGUAGAAGGCACAUGAGGAUCACCCAUGUGGGAAAACGGC [Mat - Exclusion 4 - Eli Mod - D29] (Eterna round: R97, puzzle: Brourd's mod of Exclusion 4) |  |  | 322 nM | 152 nM |  | 
19 | GUGUAGCUAGGAUAUACAUGAGGAUCACCCAUGUGAAUAAGAUAGAAUAAGAUAAAGUGUAGAAGGAGUAGUGU [Excluse me!!! 15 - Jieux - Exclusion 3] (puzzle: Exclusion 3) | 18.2 nM |  |  |  | 18.2 nM | 18.7 nM
20 | GGACAGGGAGGAUAUACUUGAGGAUCACCCAAGUCGUAUAAUCGAUGAACACGCCGAAGUAGAAGGCCCAAAAG [Esorgebi] (Eterna round: R97, puzzle: Exclusion 3) |  |  | 403 nM | 131 nM |  | 
21 | GCACGGAGUGUAGGAUAUUAGUGCGAUUAGCACUGAGAAGGACAUGAGGAUCACCCAUGUUCCUCUAAAAUUAGCCUUCCGUGC [Eli exng1 - 036] (Eterna round: R96, puzzle: Exclusion NG 1) |  | 10.7 nM | 12.4 nM | 14.8 nM |  | 
22 | CCACGACAUGAGGAUCACCCAUGUGAGGAUAUGGCCUGAAAAGCGUGAGCAGUUUCUAUCAGAAGGCGCGUGGG [salish99_ex1_r4_063] (Eterna round: R97, puzzle: Exclusion 1) |  |  | 137 nM | 49.4 nM |  | 
23 | UAUAUAUAGUAAGGAUAUGUAUUUAUCUUAUAAACAGAAGGUACUGACAUGAGGAUCACCCAUGUUUUAGUGUGGGCAUGUAGA [JMF's solution 17] (Eterna round: R96, puzzle: Exclusion NG 1) |  | 39 nM | 59.9 nM | 41.8 nM |  | 
24 | ACAAGCUUUUUGUUCGUCUUAUACACUCCUAAUAAGACAACAUGAGGAUCACCCAUGUAACAAACAAGAACUCAUGU [Sesor Array 6 - Jieux - Sensor v3, turn-off variant 2] (puzzle: Sensor v3, turn-off variant 2) | 359 nM |  |  |  | 55.1 nM | 72.5 nM
25 | UUAUCCGCUGAGGAUAUUAUCAGUGAGAGCUGAUGAGAAGGCGGUACAUGAGGAUCACCCAUGUCUAUGGGCAG [Ex-6 Malc#24] (puzzle: Exclusion 6) | 337 nM |  |  |  | 472 nM | 435 nM
26 | AUUGAUAGCACAGGAUAUUGAGAUUUGAAUUGACAAGAAGGGUGUACAUGAGGAUCACCCAUGUAAUGGCUGCCUCGUUGAUUA [JR_ExcNG1_Sub005] (Eterna round: R96, puzzle: Exclusion NG 1) |  | 45.6 nM |  |  |  | 
27 | UAACUUCUUGUAAGGAUAUUGGCGCGAAAGCGCACCGAGAAGGUACAUGAGGAUCACCCAUGUGAAAUAAGAAU [Mod of Zala 13 - Jieux - Brourd's Mod of Exclusion 4] (Eterna round: R97, puzzle: Brourd's mod of Exclusion 4) |  |  | 47.5 nM | 27.2 nM |  | 
28 | GUCGUACAUGAGGAUCACCCAUGUGAGGAUAUGGGCGGCGCCGCAAAAGCGGCGCCGCCCAGAAGGCGCAUGAU [Malcxlusion 6 - Jieux - Exclusion 1] (Eterna round: R97, puzzle: Exclusion 1) |  |  | 234 nM | 79.6 nM |  | 
29 | GCUGGUCGAGGAUAUACAUGAGGAUCACCCAUGUGAUCAGCAGUCCUCGGACUGCAAUGUAGAAGGUGACCAGC [E3/1-B1] (Eterna round: R97, puzzle: Exclusion 3) |  |  | 583 nM | 2270 nM |  | 
30 | AAAGUGUAAGGAUAUCCGAAAAGCGAGCGAAAGCGAGCGAAGGAGAAGGUACAUGAGGAUCACCCAUGUAAGGG [AK-MS2ROC-r4-exclusion4-11.5] (Eterna round: R97, puzzle: Exclusion 4) |  |  | 215 nM | 961 nM |  | 
31 | CCGAUGUGAGGAUAUACACUAGGGUGCGUAUACGUGAGCAAACAUGAGGAUCACCCAUGUAGAAGGCACUGAAA [Eternabot (Original) Solution 50] (Eterna round: R97, puzzle: Exclusion 2) |  |  | 117 nM | 30.9 nM |  | 
32 | GAUUAACAUGAGGAUCACCCAUGUGAGGAUAUUGACUUGCUCACUUUCCGAUUCGAGUCGAGAAGGCGCAUCUU [1986#117] (Eterna round: R97, puzzle: Exclusion 1) |  |  | 23.9 nM | 21.9 nM |  | 
33 | AGACAGUCAGGAUAUACAUGAGGAUCACCCAUGUUGAGAUGAGAAAGGGCAGGAAGAGGUAGAAGGGACGAGAG [JR_Exclu3_Sub036] (puzzle: Exclusion 3) | 24.7 nM |  |  |  | 31 nM | 30.4 nM
34 | UUUUUCGAACAAGCAUCGAACAUGAGGAUCACCCAUGUAGGUAGAUUUGAGUAGGUAUGGAAGUAAGCUCGUCUUAU [JR_SV3TOV1_Sub080] (puzzle: Sensor v3, turn-off variant 1) | 107 nM |  |  |  | 39.4 nM | 53.9 nM
